Data published in article PMC3017759.
One block for each substance: values may come before it.

How the values were obtained:
[1] = biological target: IL4Rα (Homo sapiens) (UniProt P24394); conditions: cited from earlier work
[2] = biological target: IL13Rα1 (Homo sapiens) (UniProt P78552); conditions: cited from earlier work
[3] = biological target: γc (Homo sapiens) (UniProt P31785); conditions: cited from earlier work
[4] = biological target: M. musculus (C57BL/6) IL4Rα extracellular domain (M. musculus (C57BL/6)) (UniProt P16382); assay: SPR; BIAcore 2000; about 1400 RU of IL4Rα immobilised on a CM5 chip by amine linkage; graded doses of IL4 in the mobile phase; HBS-EP (10 mM HEPES pH 7.4, 150 mM NaCl, 3 mM EDTA, 0.005% P-20); 25°C; flow 3 μl/min; 1:1 Langmuir fit; average of two independent experiments on two chips
Sequence of UniProt P16382 (P16382 26-233): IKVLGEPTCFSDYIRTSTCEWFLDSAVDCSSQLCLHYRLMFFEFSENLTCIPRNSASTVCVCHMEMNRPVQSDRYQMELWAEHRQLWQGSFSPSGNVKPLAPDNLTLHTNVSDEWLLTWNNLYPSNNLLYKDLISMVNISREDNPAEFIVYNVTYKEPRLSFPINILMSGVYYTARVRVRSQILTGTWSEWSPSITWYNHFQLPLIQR

Sequence of IL4 (P05112 25-153): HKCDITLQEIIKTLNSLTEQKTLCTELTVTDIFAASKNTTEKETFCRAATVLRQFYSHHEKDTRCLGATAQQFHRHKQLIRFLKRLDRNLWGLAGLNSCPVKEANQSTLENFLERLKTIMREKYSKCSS
Sequence of UniProt P24394 (P24394 26-232): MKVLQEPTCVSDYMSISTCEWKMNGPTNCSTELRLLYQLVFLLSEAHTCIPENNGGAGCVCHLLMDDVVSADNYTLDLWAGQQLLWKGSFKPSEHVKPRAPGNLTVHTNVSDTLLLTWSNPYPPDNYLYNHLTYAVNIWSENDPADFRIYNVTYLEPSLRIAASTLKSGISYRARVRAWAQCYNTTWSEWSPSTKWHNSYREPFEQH
Sequence of UniProt P78552 (P78552 22-343): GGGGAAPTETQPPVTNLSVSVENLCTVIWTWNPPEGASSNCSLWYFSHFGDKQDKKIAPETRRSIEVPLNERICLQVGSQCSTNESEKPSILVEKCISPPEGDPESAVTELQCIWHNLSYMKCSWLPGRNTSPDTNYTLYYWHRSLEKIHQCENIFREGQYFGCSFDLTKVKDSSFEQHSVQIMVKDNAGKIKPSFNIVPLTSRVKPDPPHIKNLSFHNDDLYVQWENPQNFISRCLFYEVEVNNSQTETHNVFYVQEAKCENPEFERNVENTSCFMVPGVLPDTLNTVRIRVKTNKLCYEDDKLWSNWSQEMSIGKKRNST
Sequence of UniProt P31785 (P31785 23-262): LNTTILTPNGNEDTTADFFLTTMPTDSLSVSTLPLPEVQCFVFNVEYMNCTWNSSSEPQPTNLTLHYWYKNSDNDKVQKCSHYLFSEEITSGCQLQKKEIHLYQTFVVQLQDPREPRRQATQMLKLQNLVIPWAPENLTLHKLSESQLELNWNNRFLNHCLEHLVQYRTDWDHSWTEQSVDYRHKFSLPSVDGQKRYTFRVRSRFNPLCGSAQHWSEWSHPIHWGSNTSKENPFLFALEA

Substance: IL4 (from UniProt P05112)
Kd [1]: 1 nM

Substance: IL4/IL4Rα complex (from UniProt P05112)
Kd [2]: 500 nM
Kd [3]: 500 nM

Ka [4]: 4.44e+09 M⁻¹
Kd [4]: 0.226 nM
koff [4]: 0.000713 s⁻¹
kon [4]: 3.16e+06 M⁻¹ s⁻¹
Substance: recombinant CAST/Ei IL4 (interleukin-4, Mus musculus castaneus allotype) (from UniProt P07750 21-140) (ligand)
